Assay results reported in article PMC10045213.

Biological target: p75 NeuroTrophin Receptor (UniProt P08138)
Assay: SPR; TrkA immobilized at 8860 RU, p75NTR immobilized at 4320 RU; 1.7-15 nM hNGF R100W flowed over; curves blank subtracted

Sequence of UniProt P08138 (P08138 29-427): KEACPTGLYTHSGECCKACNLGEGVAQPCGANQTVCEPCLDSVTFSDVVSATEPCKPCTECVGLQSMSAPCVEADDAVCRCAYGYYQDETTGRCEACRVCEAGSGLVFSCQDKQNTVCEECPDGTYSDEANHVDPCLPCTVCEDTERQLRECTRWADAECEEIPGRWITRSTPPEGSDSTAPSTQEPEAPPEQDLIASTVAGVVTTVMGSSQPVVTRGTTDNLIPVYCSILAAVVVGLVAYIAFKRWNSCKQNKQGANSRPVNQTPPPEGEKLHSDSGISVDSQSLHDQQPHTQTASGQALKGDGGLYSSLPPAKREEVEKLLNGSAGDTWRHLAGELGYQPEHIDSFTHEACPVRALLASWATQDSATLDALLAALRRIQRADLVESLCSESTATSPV

Kd: 0.1 µM
Substance: human NGF R100W (from UniProt P01138 122-241) (ligand)
